In the nanobody polyreactivity screen of Harvey et al. (2022):

Assay: yeast display, Sf9 membrane polyspecificity reagent, FACS + sequencing; frameworks hold sequencing errors
In short: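 Genes from sorted yeast were amplified by colony PCR, read by MiSeq 2 × 250 sequencing and filtered on CDR length. These cells carried a synthetic nanobody library in Saccharomyces cerevisiae BJ5465 and were sorted by FACS into low and high (top ~1%) gates on anti-HA and streptavidin fluorescence. Polyreactivity is labelled according to the gate of origin.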

Sequence | polyreactivity (PSR sort gate)
QVQLVESGGGLVQAGGSLRLSCAASGLTFAKNAMGWYRQAPGKERELVAAITTGGSTYYADSVKGRFTISRDNAKNTVYLQMNSLKPEDTAVYYCAAQILVRHIPYYYWGQGTQVTVSS | high polyreactivity
QVQLVESGGGLVQAGGSLRLSCAASGLTFANYVMGWYRQAPGKERELVAAISGGGGSTHYADSVKGRFTISRDNAKNTVYLQMNSLKPEDTAVYYCNADKYSVYGEHPYDYWGQGTQVTVSS | low polyreactivity
QVQLVESGGGLVQAGGSLRLSCAASGLTFANYVMGWYRQAPGKEREMVAAISRSGGSTYYADSVKGRFTISRDNAKYTVYLQMNSLKPEDTAVYYCAAAAWDPKGSRYDYWGQGTQVTVSS | low polyreactivity
QVQLVESGGGLVQAGGSLRLSCAASGLTFAVYAMGVYRQAPGKEREVVAAINWSGGSTSYADSVKGRFTISRDNAKNTVYLQMNSLKPEDTAVYYCAAVPGSYSYWRVWYGYDYWGQGTQVTVSS | high polyreactivity
QVQLVESGGGLVQAGGSLRLSCAASGLTFAYYAMGWYRQAPGKERELVAAISWNGGRTYYADSVKGRFTISRDNAKNSVYLQMNSLKPEDSAVYYCAAQVTSSFYWGQGTQVTVSS | high polyreactivity
QVQLVESGGGLVQAGGSLRLSCAASGLTFAYYAMGWYRQAPGKERELVAAITSSGTSTYYADSVKGRFTISRDNAKNTVYLQMNSQKPEDTAVYYCNARVYGYRYTYRMDYWGQGTQVTVSS | high polyreactivity
QVQLVESGGGLVQAGGSLRLSCAASGLTFDGNTMGWYRQAPGKERELVAAISFDGGNTYADSVKGRFTISRDNAKNTVYLQMISLKPEDTAVYYDYWGQGNQVTVSS | low polyreactivity
QVQLVESGGGLVQAGGSLRLSCAASGLTFDKYTMGWYRQAPGKERELVARISTSGSRTYYADSVKGRFTISRDIAKNTVYLQMNSLKPEDTAVYYCNKDGWIRRRRGYDYWGQGTQVTVSS | high polyreactivity
QVQLVESGGGLVQAGGSLRLSCAASGLTFDVYTMGWYRQAPGKEREFVAGITSGGSTDYADSVKGRFTISRDNAKNTVYLQMNSLKPEDTAVYYCNKPFPYYPDGPNGYDYWGQGTQVTVSS | low polyreactivity
QVQLVESGGGLVQAGGSLRLSCAASGLTFDWYAMGWYRQAPGKERELVAAISWNGVSTDYADSVKGRFTISRDNAKYTVYLQMNRLKPEDTAVYYCAADPPWYLYVGFDYWGQGTQVNVSS | high polyreactivity
QVQLVESGGGLVQAGGSLRLSCAASGLTFDWYAMGWYRQAPGKERELVAAITSVGSTYYADSVKGRFTISRDNAKNTVYLQMNSLKPEDTAVYYCAVEGVMWSFWPYEYWGQGTQVTVSS | high polyreactivity
QVQLVESGGGLVQAGGSLRLSCAASGLTFDWYTMGWYRQAPGKERELVATINSGGSTDYADSVKGRFTISRDNAKNNVYLQMNSLKPEDTAVYYCNAEYGYSGVGDDYWGQGTQVTVSS | low polyreactivity
QVQLVESGGGLVQAGGSLRLSCAASGLTFDWYTMGWYRQAPGKERELVATINSGGSTDYADSVKRRFTISRDNAKNTVYLQMNSLKPEDTAVYYCAAQPFVIDGGYRGDYWGQGTQVTVSS | low polyreactivity
QVQLVESGGGLVQAGGSLRLSCAASGLTFDYYAMGWYRQAPGKERELVAAISASCSSTYYADSVKGRFTISRDNAKNTVYLQMNSLKPEDTAVYYCAAVTKSSVPGSRYDYWGQGTQVTVSS | high polyreactivity
QVQLVESGGGLVQAGGSLRLSCAASGLTFDYYAMGWYRQAPGKERELVAAITRRGGGTYYADSVKGRFTISRDNAKNTVYLQMNSLKPEDTAVYYCNADRRSWSALHRYDYWGQGTQVTVSS | high polyreactivity
QVQLVESGGGLVQAGGSLRLSCAASGLTFDYYAMGWYRQAPGKERELVAAITSSGGRTYYADSVKGRFTISRDNPNKTVYLQMNSLKPEDTAVYYCAADPYSVYGGDYWGQGTQVTVSS | low polyreactivity

Sequence | polyreactivity (PSR sort gate)
QVQLVESGGGLVQAGGSLRLSCAASGLTFEKYAMGWYRQAPGKEREMVAAISQDGGSTYYADSVKGRFTISRDNAKNTVYLQMNSLKPEDTAVYYCAAEDPDSWLPWDLFYYWGQGTQVTVSS | low polyreactivity
QVQLVESGGGLVQAGGSLRLSCAASGLTFELYAMGWYRQAPGKERELVAAITWSGGRTYYADSVKGRFTISRDNAKNTVYLQMNSLKPEDTAVYYCAADVYPGYVGSQEYDYWGQGTQVTVSS | low polyreactivity
QVQLVESGGGLVQAGGSLRLSCAASGLTFEVYAMGWYRQAPGKERELVAAISSGGGSTYYADSVKGRFTISRDNAKYTVYLQMNSLKPEDSAVYYCNAVAKLYYWRYDYWGQGTQVTVSS | low polyreactivity
QVQLVESGGGLVQAGGSLRLSCAASGLTFEYYAMGWYRQAPGKERELVAAITSTGSTNYADSVKGRFTISRDNAKNTVYLQMNSLKPEDTAVYFCNAEKPEGSTLYDYDYWGQGTQVTVSS | low polyreactivity
QVQLVESGGGLVQAGGSLRLSCAASGLTFEYYTMGWYRQAPGIERELVAAITSSGGSTYYADSVKGRFTISRDNAKNTVYLQMISLKPEDTAVYYCNAYWTYEFPSYEYWGQGTQVTVSS | low polyreactivity
QVQLVESGGGLVQAGGSLRLSCAASGLTFEYYTMGWYRQAPGKERELVAAITSSGGSTYYADSVKGRFTISRDNAKNTVYLQMNSLKPEDTAVYYCAARWRHYFVWKSYDYWGQGTQVTVSS | low polyreactivity
QVQLVESGGGLVQAGGSLRLSCAASGLTFEYYTMGWYRQAPGKERELVAAITSSGGSTYYADSVKGRFTISRDNAKNTVYLQMNSLKPEDTAVYYCNAYWTYEFPSYDYWGQGTQVTVSS | low polyreactivity
QVQLVESGGGLVQAGGSLRLSCAASGLTFFAYPMGWYRQAPGKERELVAVITSSGGSTNYADSVKGRFTISRDTPKNTVYLQMNSLKPEDTAVYYCAAYIRYTLPTSRGFGYWGQGTQVTVSS | high polyreactivity
QVQLVESGGGLVQAGGSLRLSCAASGLTFFKYTMGWYRQAPGKERELVAAISSSGGSTRYADSVKGRFTISRDNAKNTVYLQMNSLKPEDTAVYYCAKRGYTSSRRWIYDYWGQGTQVTVSS | high polyreactivity
QVQLVESGGGLVQAGGSLRLSCAASGLTFFKYTMGWYRQPPGKERELVSAINGGGSTNYADSVKGRFSISRDNAKNTVYLQMNSLKPEDTAVYYCAAGLQYGYDYWGQGTQVTVSS | low polyreactivity
QVQLVESGGGLVQAGGSLRLSCAASGLTFGFYAMGWYRQAPGKERELVAGISNGGSTNYADSVKARFTISRDNAKNTVYLQMNSLKPEDTAVFYCAAQGEYGFTAYYPGDSWGQGTQVTVSS | low polyreactivity
QVQLVESGGGLVQAGGSLRLSCAASGLTFGGNAMGWYRQAPGKERELVAAISGSGGRTYYADSVKGRFTISRDNEKNTVYLQMNSLKPEDTAVYYCNAATNRRTSDYWGQGTQVTVSS | high polyreactivity
QVQLVESGGGLVQAGGSLRLSCAASGLTFGGSAMGWYRQAPGKERELVAGISSSGNTNYADSVKGRFTISRDNAKNTVYLQMISLKPEDTAVYYCAADENITYPVYDMYYWGQGTQVTVSS | low polyreactivity
QVQLVESGGGLVQAGGSLRLSCAASGLTFGNYSKGWYRQAPGKERELVAAISKRGGTTYYADSVKGRFTISRDNAKNTVYLQMNSLKPEDTAVYYCAAQVGRGYEVYPVYKYGYWGQGTQVTVSS | high polyreactivity
QVQLVESGGGLVQAGGSLRLSCAASGLTFGRYAMGWYRQAPGKERELVAVINRGGNTYYADSVKGRFTISRDNAKNTVYLQMNSLKPEDTAVYYCAADYLRWAGRYFSWDYDYWGQGTQVTVSS | high polyreactivity
QVQLVESGGGLVQAGGSLRLSCAASGLTFGRYTMGWYRQAPGKERELVAAISYSGGSTYYADSVKGRFTISRDNAKNTVYLQMNSLKPEDTAVYYCAKRWTGLGGYYYWGQGTQVTVSS | high polyreactivity
